Reference: the RNAGym collection of RNA variant scans (doi:10.1073/pnas.2313332121)
Variants at the floor of the assay were thinned out.

B1: TPR 5TU (parent)
chain: GGAUCUUCUCGAUCUAACAAAAAAGACAAAUCUGCCACAAAGCUUGAGAGCAUCUUCGGAUGCAGAGGCGGCAGCCUUCGGUGGCGCGAUAGCGCCAACGUUCUCAACUAUGACACGCAAAACGCGUGCUCCGUUGAAUGGAGUUUAUCAUG

Variants of: B1
Test: polymerase ribozyme fitness, log enrichment relative to wild type (log ratio); higher = more active; in vitro selection for triplet polymerase activity
Outline: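 After PCR construction and transcription, each subunit's mutant library from a heterodimeric triplet polymerase ribozyme was annealed with a biotinylated primer, the partner subunit and triplets. Incubation was frozen, at −7 °C, and extended constructs were gel-excised, bound to streptavidin beads and amplified by RT-PCR, in one selection round done in triplicate. Fitness is the logarithm of a genotype's enrichment divided by that of the wild type, from inverse-variance-weighted replicate averages of Illumina-sequenced inputs and outputs. The base of the logarithm is 2, and genotypes needed ≥10 input reads and ≥1 read per output.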

Compared with GGAUCUUCUCGAUCAAACAAAAAAGACAAAUCUGCCACGAAGCUUGAGAGCAACUUCGGAUGCAGAGGCGGCUGCCUUCGGUGGUGCGAUAGCGCCAACGUUCUCAACUAUGACACGCAAAACUCGUGCUCCGCCGAAUGGAGUUUAUCAUG [U15A A39G U53A A73U C85U G124U U134C U135C], GGAUCUUCUCGAUCAAACAAAAAAGACAAAUCUGCCACAAAGCUUGAGAGUAUCUUCGGAUGCAGAGGCGGCAGCCUUCGGUGGCUCGAUAGCGCCAACGUUCUCAACUAUGACACGCAAAACGCGUGCUCCGUUGAAUGGAGUUUAUCAUG [U15A C51U G86U] is higher in “polymerase ribozyme fitness (log ratio)” value: ≤ -4.2 for the first, -1.69 for the second.

Compared with GGAUCUUCUCGAUCAAACAAAAAAGCCAAAUCUGCCACAAAGCUUGAGAGCAUCUUCGGAUGCAGAGGCGGCAGCCUUCGGUGGCGCGAUAGCGCCAACGUUCUCAACUAUGACACGCAAAACGCGUGCUCCGUUGAAUGGAGUUUAUCAUG [U15A A26C], GGAUCUUCUCGAUCAAACAAAAAAGAGAAAUCUGCCACAAAGCUUGAGAGCAUCAUGGGAUGCAGAGGCGGCAGCCUUCGGUGGCGCGAUAGCUCCAACGUUCUUAACUAUGACACGCAAAACGCGUGCUCCGUUAAAUGGAUUUUAUCAUG [U15A C27G U55A C57G G94U C105U G136A G143U] is lower in “polymerase ribozyme fitness (log ratio)” value: -1.44 for the first, ≤ -4.2 for the second.

Going from GGAUCUUCUCGAUCAAACCAAAAAGACAUAUCUGCCACAAAGCUUGAGAACAUCUUCGGAUGCAGAGGCGGCAGCCUUCGGUGGCGCGAUAGCGUCAACGUUCUCAACUAUGACACGCAAAACGCGUGCUCCGUUGAAUGGUGUUUAUCAUG [U15A A19C A29U G50A C95U A142U] to GGAUCUUCUCGAUCAAACAAAAAAGACAAAUCUGCCACACAGCUUGAGAGCAUCUUCGGAUGCAGAGGCGGCAGCCUUCGGUGGCGCGAUAGCGCCAACGUUCUCAACUAUGACACGCAAAACGCGUGCUCCGUUGAAUGGAGUUUAUCAUG [U15A A40C], the “polymerase ribozyme fitness (log ratio)” value rises from ≤ -4.2 to 0.538.

Compared with GGAUCUUCUCGAUCAAACAAAAAAGACAAAUCUGCCACAAAGCUUGAGAGCAUCUUCGGAUGCAGAGGCGGCAGCCUUCGGUGGCGCGAUAGCGCCAACGUUCUCAACUAUGACACGCAAAACGCGUGCUCCGUUGAAUGGCGUUUAUCAUG [U15A A142C], GGAUCUUCUCGAUCAAACAAAAAAGACAAAUCUGCCAUAAAGCUUGAGAGCAUCUUCAGAGGCAGAGACGGCAGCCUUCGGUAGCGGGAUAGCGCCAACGUUCUCCACUAUGACACGCAAAACGCGUGCUCCGUUGAAUGGAGUCUAUCAUG [U15A C38U G58A U61G G68A G83A C87G A106C U145C] is lower in “polymerase ribozyme fitness (log ratio)” value: -0.894 for the first, ≤ -4.2 for the second.

Compared with GGAUCUUCUCGAUCAAACAAAAAAGACAAAUCUGCCACAAAGCUUGCCAGCAUCUUCCGAUGCAGAGGCGGCAGCCUUCGGUGGCGCGAUAGCGCCAACGUUCUCAACUAUGACACGCAAAACGUGUGCUCCGUUGAAUAGAGUUUAUCAUG [U15A A47C G48C G58C C125U G140A], GGAUCUUCUCGAUCAAACAAAAAAGACAAAUCUGCCAAAACGCUUGAGAGCAUCUUCGGAUGCAGAGGCGGCAGUCUUCGGUGGCGCGAUAGCGCCAACGUUCUCAACUAUGACACGCAAAACGCGUGCUCCGUCGAAUGGAGUUUAUCAUG [U15A C38A A41C C75U U135C] is higher in “polymerase ribozyme fitness (log ratio)” value: ≤ -4.2 for the first, -3.63 for the second.

Compared with GGAUCUUCUCGAUCAAACAAAAAAGACAAAUCUGCCACAAAGCUUGAGAGCAUCUUCGGAUGUAGAGGCGGCAGCCUUCGGUGGCGCGAUAGCGCCAACGUUCUCAACUAUGACACGCAAAACGCGUGCUCCGUUGAAUGGAGUUUAUCAAG [U15A C63U U151A], GGAUCUUCUCGAUCAAACAAAAAGUACAAAUAUGCCACAAAGCUUGAGAGCAUCUACGCAUGCAGAGGCGGCAGCCUUCGGGGGCGCGAUAGCGCCAACGUUGUCAACUAUGACACGCAAAACGCGUGCUCCGUUGAAUGGAGUUUAUCAUG [U15A A24G G25U C32A U56A G59C U82G C103G] is lower in “polymerase ribozyme fitness (log ratio)” value: -3.9 for the first, ≤ -4.2 for the second.

GGAUCUUCUCGAUCAAACACAAAAGACAAAUCUGCCACAAAGCUUGAGAGCAUCUUCGAUUGCAGAGGCGGCAGCCUUCGGUGGCGCGAUAGGGCCAACGUUCUUAACUAUGACACGCAAAACGCGUGCUCCUUUGAAUGGAGUUUAUCAUG [U15A A20C G59A A60U C93G C105U G133U] and GGAUCUUCUCGAUCAAACAAAAAAGACAAAUCUGCCACAAAGCUUGAGUGCAUCUUCGGAUGCAGAGGCGGCGGCCUUCGGGGGCGCGAUAGCGCCAACGUUCUCAUCUAUGACACGCAAAACGCGUGCUCCGUUGAAUGGAGUUUAUCAUG [U15A A49U A73G U82G A107U] cannot be ordered by “polymerase ribozyme fitness (log ratio)” value: ≤ -4.2 for the first, ≤ -4.2 for the second.

First: GGAUCUUCUCGAUCAAACAAAAAAGACAAAUCUGCCACUAAGCUUGAGAGCAUCUUCGGAUGCAGAGGCGGCAGCCUUCGGUGGCGCGAUAGCGCUAACGUUCUCAACUAUGAAACGCAAAGUGAGUGCUCCGUUGAAUGGAGUUUAUCAUG [U15A A39U C96U C114A A122G C123U C125A]
Second: GGAUCUUCUCGAUCAAACAAAAAAGCCAAAUCUUCCACAAAGCUUGAGAGCAUCUUCGGAUGCAGAGGCGGCAGCCUUCGGUGGCGCGAUAGCGCCAACGUUCUGAACUAUGACACGCAAAACGCGUGCUCCGUUGAAUGGACUUUAUCAUG [U15A A26C G34U C105G G143C]
The “polymerase ribozyme fitness (log ratio)” value of the first is higher: -4.11 for the first, ≤ -4.2 for the second.

First: GGAUCUUCUCGAUCAAACAAAAAAGACAAAUCUGCCACAAAGCUUGAGAGCAUCUUAGGAUGCAGAGGCGGCAGCUUUCGGUGCCGCGAUAGCGCCAACGUUCUCAACUAUGACACGCAAAACGCGUGCUCCGUUGAAUGGAGUUUAUCAUG [U15A C57A C76U G84C]
Second: GGAUCUUCUCGAUCAAACAAAAAAGACAAAUCUGCCACAAAGCUUGAGAGCCUCUUCGGAUGCAGCGGCGGCAGCCUUCGGUGUCGCGAUAGCGCCAACGUUCUCAACUAUGACACGCAAAACGCGUGCUCCGUUGAAUGGAGUUUAUCAUG [U15A A52C A66C G84U]
The “polymerase ribozyme fitness (log ratio)” value of the first is higher: -1.52 for the first, ≤ -4.2 for the second.

For GGAUCUUCUCGAUCAAACAAAAAAGACAAAUCUGUCACAAAGCUUGAGAGCAUCAUCGGAUGCAGAGGCGGCAGCCUUCGGUGGCGCGAUAGCGCGAACGUUCUCAUCUAUGACACGCAAAACGCGUGCUCCGUCGAAUGGAGUUUAUCAUG [U15A C35U U55A C96G A107U U135C], the “polymerase ribozyme fitness (log ratio)” value was ≤ -4.2.
